The source of these data is patent US20140287989A1 (CENTRE NATIONAL DE LA RECHERCHE SCIENTIFIQUE, published 2014).

Like-named read-outs stand apart in the source and are kept apart here. Square brackets hold non-standard residues; d marks the D form. Cha = N[C@@H](CC1CCCCC1)C(=O)O

Experiment [1] has as its target T1, E. coli β clamp (β subunit of DNA polymerase III, dnaN gene product), N-tagged (E. coli, UniProt P0A988 1-366).
T1 construct: The dnaN gene was cloned in pET15b and expressed in BL21 E. coli; also called β ring; β protein; not shown: N-terminal tag from the pET15b vector (N-tagged protein, enriched on Ni-NTA)
In words: SPR competition against P1.

Experiment [2] deals with T1, E. coli β clamp (β subunit of DNA …). In words: SPR competition on immobilised P1.
For experiment [3] the target is unchanged. In words: cell-based or functional assay.
Experiment [4] deals with T2, E. coli β clamp (β subunit of DNA polymerase III, dnaN gene product) (E. coli, UniProt P0A988 1-366).
T2 construct: Homodimeric ring; N-tagged protein expressed in BL21 E. coli and purified on Ni-NTA and MonoQ; also called β ring; β protein; not shown: N-terminal tag from the pET15b plasmid
T2 sequence (P0A988 whole entry): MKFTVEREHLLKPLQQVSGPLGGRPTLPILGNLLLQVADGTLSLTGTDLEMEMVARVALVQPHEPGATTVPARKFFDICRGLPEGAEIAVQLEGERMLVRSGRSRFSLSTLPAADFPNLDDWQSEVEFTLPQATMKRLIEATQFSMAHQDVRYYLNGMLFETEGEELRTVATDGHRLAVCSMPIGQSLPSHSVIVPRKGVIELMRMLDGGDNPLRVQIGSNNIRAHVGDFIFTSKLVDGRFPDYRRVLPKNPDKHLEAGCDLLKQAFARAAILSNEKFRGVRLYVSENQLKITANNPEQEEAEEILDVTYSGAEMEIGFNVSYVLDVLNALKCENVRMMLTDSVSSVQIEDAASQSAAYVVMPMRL
The experiment can be described thus: SPR competition; ΔG = -RT ln Ki.

Experiment [5] deals with T2, E. coli β clamp (β subunit of DNA …). The experiment can be described thus: SPR competition: peptide with β ring injected on immobilized P1.
Experiment [6] shares this target. The experiment is described as above. The source holds these as a separate data set.
For experiment [7] the target is unchanged. Described as above. This is another data set of the same source.
The target in experiment [8] is T1, E. coli β clamp (β subunit of DNA …). In words: ITC, peptide 400 µM into β ring 30 µM, 25° C. (In general: Isothermal titration calorimetry measures the heat released or taken up as one component is titrated into another.)
Experiment [9] has the same target. The experiment can be described thus: SPR competition on immobilised P1; ΔG = -RT ln Ki.
The target is the same in experiment [10]. In words: SPR direct binding: β protein (0.125 µM to 2 µM) injected on immobilised P1, 1:1 Langmuir model.
The target is the same in experiment [11]. The experiment can be described thus: SPR competition (Biacore 3000): β ring 0.25 µM mixed with the challenger, injected on immobilised P1.

T1 sequence (P0A988 whole entry): as above

B1: P7 (Ac Q Cha DLF) (peptide)
peptide: Ac-Q[Cha]DLF-OH
SMILES: CC(=O)N[C@@H](CCC(N)=O)C(=O)N[C@@H](CC1CCCCC1)C(=O)N[C@@H](CC(=O)O)C(=O)N[C@@H](CC(C)C)C(=O)N[C@@H](Cc1ccccc1)C(=O)O
notes: also called Ac-Gln-Cha-Asp-Leu-Phe-OH
B1: the “fold decrease in affinity against P14” value in experiment [1] is 2 fold. Further, the “fold increase in the interaction against P6” value in experiment [2] was found to be 6 fold. In addition, in experiment [3], the “IC50, Pol IV based biochemical assay (inhibition of β dependent Pol IV elongation)” value came to 2800 nM.

B2: P7, Ac-Gln-Cha-Asp-Leu-Phe-OH (peptide)
peptide: Ac-Q[Cha]DLF-OH
SMILES: CC(=O)N[C@@H](CCC(N)=O)C(=O)N[C@@H](CC1CCCCC1)C(=O)N[C@@H](CC(=O)O)C(=O)N[C@@H](CC(C)C)C(=O)N[C@@H](Cc1ccccc1)C(=O)O
notes: X stands for the non-natural residue; also called Ac Q ChaDLF; AcQChaDLF
On to B2, for which the ΔG in experiment [4] is -9.42 kcal/mol. Besides, the concentration for half-maximal inhibition (IC50) in [5], in experiment [6] and in [7] was 170 nM in each case.

B3: P1, natural C-terminal heptapeptide of E. coli DNA polymerase IV (RQLVLGL) (peptide)
peptide: H-RQLVLGL-OH
notes: Used free in solution as challenger and immobilised on the SPR chip; the way of immobilisation is not described; also called natural Cter heptamer; natural heptapeptide
With B3, in [2], the “fold less efficient binding than the whole polymerase (PolIV)” value stood at 30 fold. The dissociation constant (Kd) (commonly the constant that tells how readily two partners part at equilibrium) in [8] was 1000 to 2000 nM; in experiment [10] it was 285 nM. The ΔG in [9] was -7.06 kcal/mol. In addition, the IC50 (commonly the concentration that gives 50% inhibition) in [11] stood at 8850 nM.
